The results in this text go back to US20110294738A1, “PTHR1 RECEPTOR COMPOUNDS” (priority 2008, published 2011).

B1: Compound 92 (peptide)
peptide: Palmitoyl-TNAGRSDTRQQARKLL-NH2
SMILES: CCCCCCCCCCCCCCCC(=O)N[C@H](C(=O)N[C@@H](CC(N)=O)C(=O)N[C@@H](C)C(=O)NCC(=O)N[C@@H](CCCNC(=N)N)C(=O)N[C@@H](CO)C(=O)N[C@@H](CC(=O)O)C(=O)N[C@H](C(=O)N[C@@H](CCCNC(=N)N)C(=O)N[C@@H](CCC(N)=O)C(=O)N[C@@H](CCC(N)=O)C(=O)N[C@@H](C)C(=O)N[C@@H](CCCNC(=N)N)C(=O)N[C@@H](CCCCN)C(=O)N[C@@H](CC(C)C)C(=O)N[C@@H](CC(C)C)C(N)=O)[C@@H](C)O)[C@@H](C)O
B2: Compound 85 (peptide)
peptide: Palmitoyl-TNAGRSDTRQQYRKLLFS-NH2
SMILES: CCCCCCCCCCCCCCCC(=O)N[C@H](C(=O)N[C@@H](CC(N)=O)C(=O)N[C@@H](C)C(=O)NCC(=O)N[C@@H](CCCNC(=N)N)C(=O)N[C@@H](CO)C(=O)N[C@@H](CC(=O)O)C(=O)N[C@H](C(=O)N[C@@H](CCCNC(=N)N)C(=O)N[C@@H](CCC(N)=O)C(=O)N[C@@H](CCC(N)=O)C(=O)N[C@@H](Cc1ccc(O)cc1)C(=O)N[C@@H](CCCNC(=N)N)C(=O)N[C@@H](CCCCN)C(=O)N[C@@H](CC(C)C)C(=O)N[C@@H](CC(C)C)C(=O)N[C@@H](Cc1ccccc1)C(=O)N[C@@H](CO)C(N)=O)[C@@H](C)O)[C@@H](C)O
B3: Compound 86 (peptide)
peptide: Palmitoyl-TNAGRSDTRQQYRKLLFA-NH2
SMILES: CCCCCCCCCCCCCCCC(=O)N[C@H](C(=O)N[C@@H](CC(N)=O)C(=O)N[C@@H](C)C(=O)NCC(=O)N[C@@H](CCCNC(=N)N)C(=O)N[C@@H](CO)C(=O)N[C@@H](CC(=O)O)C(=O)N[C@H](C(=O)N[C@@H](CCCNC(=N)N)C(=O)N[C@@H](CCC(N)=O)C(=O)N[C@@H](CCC(N)=O)C(=O)N[C@@H](Cc1ccc(O)cc1)C(=O)N[C@@H](CCCNC(=N)N)C(=O)N[C@@H](CCCCN)C(=O)N[C@@H](CC(C)C)C(=O)N[C@@H](CC(C)C)C(=O)N[C@@H](Cc1ccccc1)C(=O)N[C@@H](C)C(N)=O)[C@@H](C)O)[C@@H](C)O
B4: Compound 93 (peptide)
peptide: Palmitoyl-TNAGRSDTRQAYRKLL-NH2
SMILES: CCCCCCCCCCCCCCCC(=O)N[C@H](C(=O)N[C@@H](CC(N)=O)C(=O)N[C@@H](C)C(=O)NCC(=O)N[C@@H](CCCNC(=N)N)C(=O)N[C@@H](CO)C(=O)N[C@@H](CC(=O)O)C(=O)N[C@H](C(=O)N[C@@H](CCCNC(=N)N)C(=O)N[C@@H](CCC(N)=O)C(=O)N[C@@H](C)C(=O)N[C@@H](Cc1ccc(O)cc1)C(=O)N[C@@H](CCCNC(=N)N)C(=O)N[C@@H](CCCCN)C(=O)N[C@@H](CC(C)C)C(=O)N[C@@H](CC(C)C)C(N)=O)[C@@H](C)O)[C@@H](C)O
B5: Compound 88 (peptide)
peptide: Palmitoyl-TNAGRSDTRQQYRKLA-NH2
SMILES: CCCCCCCCCCCCCCCC(=O)N[C@H](C(=O)N[C@@H](CC(N)=O)C(=O)N[C@@H](C)C(=O)NCC(=O)N[C@@H](CCCNC(=N)N)C(=O)N[C@@H](CO)C(=O)N[C@@H](CC(=O)O)C(=O)N[C@H](C(=O)N[C@@H](CCCNC(=N)N)C(=O)N[C@@H](CCC(N)=O)C(=O)N[C@@H](CCC(N)=O)C(=O)N[C@@H](Cc1ccc(O)cc1)C(=O)N[C@@H](CCCNC(=N)N)C(=O)N[C@@H](CCCCN)C(=O)N[C@@H](CC(C)C)C(=O)N[C@@H](C)C(N)=O)[C@@H](C)O)[C@@H](C)O
B6: Compound 89 (peptide)
peptide: Palmitoyl-TNAGRSDTRQQYRKAL-NH2
SMILES: CCCCCCCCCCCCCCCC(=O)N[C@H](C(=O)N[C@@H](CC(N)=O)C(=O)N[C@@H](C)C(=O)NCC(=O)N[C@@H](CCCNC(=N)N)C(=O)N[C@@H](CO)C(=O)N[C@@H](CC(=O)O)C(=O)N[C@H](C(=O)N[C@@H](CCCNC(=N)N)C(=O)N[C@@H](CCC(N)=O)C(=O)N[C@@H](CCC(N)=O)C(=O)N[C@@H](Cc1ccc(O)cc1)C(=O)N[C@@H](CCCNC(=N)N)C(=O)N[C@@H](CCCCN)C(=O)N[C@@H](C)C(=O)N[C@@H](CC(C)C)C(N)=O)[C@@H](C)O)[C@@H](C)O
B7: Compound 87 (peptide)
peptide: Palmitoyl-TNAGRSDTRQQYRKLLA-NH2
SMILES: CCCCCCCCCCCCCCCC(=O)N[C@H](C(=O)N[C@@H](CC(N)=O)C(=O)N[C@@H](C)C(=O)NCC(=O)N[C@@H](CCCNC(=N)N)C(=O)N[C@@H](CO)C(=O)N[C@@H](CC(=O)O)C(=O)N[C@H](C(=O)N[C@@H](CCCNC(=N)N)C(=O)N[C@@H](CCC(N)=O)C(=O)N[C@@H](CCC(N)=O)C(=O)N[C@@H](Cc1ccc(O)cc1)C(=O)N[C@@H](CCCNC(=N)N)C(=O)N[C@@H](CCCCN)C(=O)N[C@@H](CC(C)C)C(=O)N[C@@H](CC(C)C)C(=O)N[C@@H](C)C(N)=O)[C@@H](C)O)[C@@H](C)O
B8: Compound 34 (peptide)
peptide: Palmitoyl-LYLHSLIFMAFFSEKKYLWGFT-NH2
SMILES: CCCCCCCCCCCCCCCC(=O)N[C@@H](CC(C)C)C(=O)N[C@@H](Cc1ccc(O)cc1)C(=O)N[C@@H](CC(C)C)C(=O)N[C@@H](Cc1c[nH]cn1)C(=O)N[C@@H](CO)C(=O)N[C@@H](CC(C)C)C(=O)N[C@H](C(=O)N[C@@H](Cc1ccccc1)C(=O)N[C@@H](CCSC)C(=O)N[C@@H](C)C(=O)N[C@@H](Cc1ccccc1)C(=O)N[C@@H](Cc1ccccc1)C(=O)N[C@@H](CO)C(=O)N[C@@H](CCC(=O)O)C(=O)N[C@@H](CCCCN)C(=O)N[C@@H](CCCCN)C(=O)N[C@@H](Cc1ccc(O)cc1)C(=O)N[C@@H](CC(C)C)C(=O)N[C@@H](Cc1c[nH]c2ccccc12)C(=O)NCC(=O)N[C@@H](Cc1ccccc1)C(=O)N[C@H](C(N)=O)[C@@H](C)O)[C@@H](C)CC
B9: Compound 84 (peptide)
peptide: Palmitoyl-TNAGRSDTRQQYRKLLK-NH2
SMILES: CCCCCCCCCCCCCCCC(=O)N[C@H](C(=O)N[C@@H](CC(N)=O)C(=O)N[C@@H](C)C(=O)NCC(=O)N[C@@H](CCCNC(=N)N)C(=O)N[C@@H](CO)C(=O)N[C@@H](CC(=O)O)C(=O)N[C@H](C(=O)N[C@@H](CCCNC(=N)N)C(=O)N[C@@H](CCC(N)=O)C(=O)N[C@@H](CCC(N)=O)C(=O)N[C@@H](Cc1ccc(O)cc1)C(=O)N[C@@H](CCCNC(=N)N)C(=O)N[C@@H](CCCCN)C(=O)N[C@@H](CC(C)C)C(=O)N[C@@H](CC(C)C)C(=O)N[C@@H](CCCCN)C(N)=O)[C@@H](C)O)[C@@H](C)O
B10: Compound 82 (peptide)
peptide: Palmitoyl-TNAGRSATRQQYRKLL-NH2
SMILES: CCCCCCCCCCCCCCCC(=O)N[C@H](C(=O)N[C@@H](CC(N)=O)C(=O)N[C@@H](C)C(=O)NCC(=O)N[C@@H](CCCNC(=N)N)C(=O)N[C@@H](CO)C(=O)N[C@@H](C)C(=O)N[C@H](C(=O)N[C@@H](CCCNC(=N)N)C(=O)N[C@@H](CCC(N)=O)C(=O)N[C@@H](CCC(N)=O)C(=O)N[C@@H](Cc1ccc(O)cc1)C(=O)N[C@@H](CCCNC(=N)N)C(=O)N[C@@H](CCCCN)C(=O)N[C@@H](CC(C)C)C(=O)N[C@@H](CC(C)C)C(N)=O)[C@@H](C)O)[C@@H](C)O
B11: Compound 91 (peptide)
peptide: Palmitoyl-TNAGRSDTRQQYAKLL-NH2
SMILES: CCCCCCCCCCCCCCCC(=O)N[C@H](C(=O)N[C@@H](CC(N)=O)C(=O)N[C@@H](C)C(=O)NCC(=O)N[C@@H](CCCNC(=N)N)C(=O)N[C@@H](CO)C(=O)N[C@@H](CC(=O)O)C(=O)N[C@H](C(=O)N[C@@H](CCCNC(=N)N)C(=O)N[C@@H](CCC(N)=O)C(=O)N[C@@H](CCC(N)=O)C(=O)N[C@@H](Cc1ccc(O)cc1)C(=O)N[C@@H](C)C(=O)N[C@@H](CCCCN)C(=O)N[C@@H](CC(C)C)C(=O)N[C@@H](CC(C)C)C(N)=O)[C@@H](C)O)[C@@H](C)O
B12: Compound 83 (peptide)
peptide: Palmitoyl-TNAGRSDTRQQYRKLLF-NH2
SMILES: CCCCCCCCCCCCCCCC(=O)N[C@H](C(=O)N[C@@H](CC(N)=O)C(=O)N[C@@H](C)C(=O)NCC(=O)N[C@@H](CCCNC(=N)N)C(=O)N[C@@H](CO)C(=O)N[C@@H](CC(=O)O)C(=O)N[C@H](C(=O)N[C@@H](CCCNC(=N)N)C(=O)N[C@@H](CCC(N)=O)C(=O)N[C@@H](CCC(N)=O)C(=O)N[C@@H](Cc1ccc(O)cc1)C(=O)N[C@@H](CCCNC(=N)N)C(=O)N[C@@H](CCCCN)C(=O)N[C@@H](CC(C)C)C(=O)N[C@@H](CC(C)C)C(=O)N[C@@H](Cc1ccccc1)C(N)=O)[C@@H](C)O)[C@@H](C)O
B13: Compound 90 (peptide)
peptide: Palmitoyl-TNAGRSDTRQQYRALL-NH2
SMILES: CCCCCCCCCCCCCCCC(=O)N[C@H](C(=O)N[C@@H](CC(N)=O)C(=O)N[C@@H](C)C(=O)NCC(=O)N[C@@H](CCCNC(=N)N)C(=O)N[C@@H](CO)C(=O)N[C@@H](CC(=O)O)C(=O)N[C@H](C(=O)N[C@@H](CCCNC(=N)N)C(=O)N[C@@H](CCC(N)=O)C(=O)N[C@@H](CCC(N)=O)C(=O)N[C@@H](Cc1ccc(O)cc1)C(=O)N[C@@H](CCCNC(=N)N)C(=O)N[C@@H](C)C(=O)N[C@@H](CC(C)C)C(=O)N[C@@H](CC(C)C)C(N)=O)[C@@H](C)O)[C@@H](C)O

* marks the point of attachment. Palmitoyl = CCCCCCCCCCCCCCCC(=O)*

PTHR1 receptor, sequence (P25961 whole entry): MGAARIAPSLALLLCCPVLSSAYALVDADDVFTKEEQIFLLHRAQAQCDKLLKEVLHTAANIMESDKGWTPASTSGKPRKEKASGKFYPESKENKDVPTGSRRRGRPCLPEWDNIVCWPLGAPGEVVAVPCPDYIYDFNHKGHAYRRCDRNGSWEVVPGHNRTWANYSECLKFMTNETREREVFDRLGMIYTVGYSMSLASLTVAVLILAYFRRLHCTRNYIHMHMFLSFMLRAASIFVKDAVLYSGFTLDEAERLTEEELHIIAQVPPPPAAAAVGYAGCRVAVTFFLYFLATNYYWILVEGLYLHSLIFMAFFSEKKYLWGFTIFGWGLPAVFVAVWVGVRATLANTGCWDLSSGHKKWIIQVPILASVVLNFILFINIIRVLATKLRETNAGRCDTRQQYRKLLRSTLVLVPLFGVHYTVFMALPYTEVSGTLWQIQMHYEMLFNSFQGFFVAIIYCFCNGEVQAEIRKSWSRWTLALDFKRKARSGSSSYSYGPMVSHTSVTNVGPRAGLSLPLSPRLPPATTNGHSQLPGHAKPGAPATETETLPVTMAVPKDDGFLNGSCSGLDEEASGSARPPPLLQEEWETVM

This assay concerns the target PTHR1 receptor.
As to B1, the Fold Shift of EC50 is 5 fold and the Inhibition of Maximal Response worked out at 8.3%.
Take B2: the Fold Shift of EC50 was 6.9 fold and the Inhibition of Maximal Response worked out at 19.5%.
On the same counts, the results for B3 are 3.6 fold and 5.2%.
On the same counts, the results for B4 are 13.4 fold and -67%.
The matching figures for B5: 2.8 fold and -25%.
For the molecule B6, the Fold Shift of EC50 turned out to be 2.3 fold and the Inhibition of Maximal Response is -20.4%.
On the same counts, the results for B7 are 4.1 fold and 8%.
Regarding B8, the Fold Shift of EC50 came out at 1.2 fold and the Inhibition of Maximal Response came out at 4.2%.
Take B9: the Fold Shift of EC50 stood at 9.1 fold and the Inhibition of Maximal Response is -25.2%.
On the same counts, the results for B10 are 23.4 fold and -21.6%.
On the same counts, the results for B11 are 2 fold and 9.8%.
On the same counts, the results for B12 are 7 fold and -5.8%.
For B13, the Fold Shift of EC50 stood at 2 fold and the Inhibition of Maximal Response amounted to 21%.
